Measured values reported in publication PMC2877719 (2010).
No end group written: not given here.

Target: calmodulin (Homo sapiens, UniProt P0DP23)
Assay: FCS

Kd [nM] | Binder
45 | FARLTRALTSSRGVL (also: fluorescent label, unspecified) [hEAG1 BD-N]
> 5000 | LRKRIVFRKI (also: GST fusion)
223 | RRLFQRFRQQK (also: fluorescent label, unspecified) [hEAG1 BD-C2]
327 | LRKRIVFRKI (also: fluorescent label, unspecified)
